Measured values: patent publication US20060281899A1, “Mutants of biotin binding protein” (priority 2002, published 2006)

Experiments:
[1] = IAsys optical biosensor, affinity of avidin and avidin mutants towards 2-iminobiotin; type: binding
Protocol: Reversibility of biotin binding was measured for avidin and the mutants with an IAsys optical biosensor (Laitinen, O. H. et al., FEBS Lett 461 (1999), 52-8). Protein samples were allowed to bind to a biotin-aminosilane cuvette in PBS containing 1 M NaCl. After the equilibrium was reached, biotin-containing buffer was added and the dissociation of the proteins was monitored. The affinities of the proteins towards 2-iminobiotin were determined with an IAsys optical biosensor (Marttila, A. T. et al. FEBS Lett 441 (1998), 313-7). Biotin-binding activity of the mutants Avd-ci and Avd-ccci after heat treatment was studied with a microtiter plate assay. Protein samples, 5 μg/ml concentration in PBS, were heated for various time periods at 99.9° C. and then chilled on ice. The samples were transferred to a Nunc Maxisorp-plate and incubated at 37° C. for 2 h. The wells were washed three times with PBS-Tween (0.05% v/v). After that the wells were blocked with PBS containing 1% BSA at 37° C. for 30 minutes and washed again with PBS-Tween. Next, biotinylated alkaline phosphatase (Sigma) in PBS, 1% BSA was added and incubated at 37° C. for one hour. Once again, the wells were washed with PBS-Tween and the PNPP substrate in DEA buffer (1 mg/ml) was applied to the wells. The absorbances at 405 nm were measured after incubation for 45 minutes.

[2] = Differential scanning calorimetry of avidin and AVR4/5 forms; type: physicochemical
Protocol: The thermodynamics of the heat-induced unfolding of the proteins were studied using DSC. The transition midpoint of heat-induced denaturation (Tm) of the avidin and different AVR4/5 forms was studied using a Nano II differential scanning calorimeter (Calorimetric Sciences Corporation, Provo, Utah, USA). The reference cell was filled with buffer whereas the sample cell was filled with proteins dissolved in 50 mM sodium phosphate buffer, pH 7.0 containing 100 mM NaCl. Avidin and AVR4/5(C124S) were also analyzed in 50 mM Na-acetate pH 4.0 containing 100 mM NaCl. Furthermore, AVR4/5 was analyzed in the presence of 2-mercaptoethanol (0.4% v/v). The samples (1.6-9.6 μM) were analyzed both in the absence and presence of a three fold molar excess of biotin/subunit. All samples were degassed before being loaded into the DSC. The thermograms were recorded as a function of temperature; between 25 and 130° C. at a rate of 55.6° C./h (Gonzalez, M., Argarana, C. E. & Fidelio, G. D. (1999) Biomol. Eng. 16, 67-72; Nordlund, H. R., Laitinen, O. H., Uotila, S. T., Nyholm, T., Hytönen, V. P., Slotte, J. P. & Kulomaa, M. S. (2003) J. Biol. Chem. 278, 2479-2483). Data was analyzed using Microcal Origin 6.0 and Cpcalc 2.1 (Applied Thermodynamics, Hunt Valley, Md.). The change in heat capacity upon unfolding (ΔCp) was measured for avidin and AVR4/5(C124S) using DSC data from measurements in pH 4.0 and 7.0. ΔCp was then obtained from the slope of ΔH vs. Tm (Liu, Y. & Sturtevant, J. M. (1996) Biochemistry 35, 3059-3062).

[3] = Microparticle analysis, BF523-biotin binding of protein-coated particles before and after 95° C.; type: physicochemical; details: 30 minutes at 95° C., BF523-biotin added after treatment (iv)
Protocol: Before the analysis, 3.22 μm microparticles with COOH-group/0.852 nm2 (Bangs laboratories, Fishers, Ind., USA) were covalently coated with biotin-binding proteins. Microparticles (1*108 pcs) were washed twice with H20 by sequential centrifuging (5000 g; 3 min) and aspiration, and resuspended in 200 μl PB buffer (50 mM NaH2PO4-HCl, pH 3.0). A solution of biotin binding protein (50 μl, 1 mg/ml or 3 mg/ml, 50 mM Na-acetate pH 4.0) was added while vortexing. The suspension was incubated for 1 h (500 rpm; 23° C.). Particles were washed with PB and with MES buffer (50 mM, pH 5.5) and suspended in MES buffer (200 μl). […] After the last wash particles were suspended in 100 μl volume and concentration of particles was determined with Multisizer 3 Coulter Counter (Beckman Coulter, Fullerton, Calif., USA). […]
Microparticles (5*106 pcs) were suspended in 900 μl of assay buffer and aliquoted in […] PCR-tubes (i-v; 180 μl/aliquot). […] The samples were measured with ArcDia TPX PlateReader (ArcDia Ltd.) (Soini, E., Meltola, N. J., Soini, A. E., Soukka, J., Soini, J. T. & Hanninen, P. E. (2000) Biochem. Soc. Trans. 28, 70-74). […]
The fluorescence emission efficiencies of the BF523-biotin conjugate (200 nM) was determined before and after the incubation (30 min) at 95° C. […]

[4] = biotin cuvette; avidin values from literature; cited from earlier work
[5] = biotin cuvette; values from Hytönen 2003; cited from earlier work

Substance: wt Avidin: Wild-type chicken avidin (SEQ ID NO 1), purified from chicken egg-white [reference compound]
- Kd [1]: 25 nM
- Tm at pH 4 ([2]; 50 mM Na-acetate pH 4.0, 100 mM NaCl): 76.6±0.2 °C
- DSC Tm(−biotin) ([2]; 50 mM sodium phosphate pH 7.0, 100 mM NaCl): 83.5 ± 0.1 °C
- ΔTm ([2]; change in Tm upon addition of a three-fold molar excess of biotin): 33.5 °C
- ΔH of unfolding ([2]; sample without biotin): 78.6 ± 1.2 kcal/mol
- ΔCp (change in heat capacity upon unfolding) ([2]; slope of ΔH vs. Tm, DSC at pH 4.0 and 7.0): 0.00366 kcal/mol
- DSC Tm (+biotin) ([2]; three-fold molar excess of biotin, pH 7.0): 117.0 ± 0.7 °C
- original signal after heat treatment of coated particles [3]: 9%
- Reversibility of biotin binding [4]: 1 ± 1%
- Reversibility of binding to biotin [5]: 4 ± 2%
